T1: hCTLA4_ECD.His point mutant G64 to alanine (human, UniProt P16410 36-161)
T1 construct: extracellular domain; alanine-scan mutein, HEK293F supernatant
T1 sequence (looked up): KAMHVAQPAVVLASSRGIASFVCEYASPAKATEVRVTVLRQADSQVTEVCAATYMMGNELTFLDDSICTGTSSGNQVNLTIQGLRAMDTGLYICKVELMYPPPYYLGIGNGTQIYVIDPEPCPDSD

T2: hCTLA4_ECD.His point mutant L126 to alanine (human, UniProt P16410 36-161)
T2 construct: extracellular domain; alanine-scan mutein, HEK293F supernatant
T2 sequence (looked up): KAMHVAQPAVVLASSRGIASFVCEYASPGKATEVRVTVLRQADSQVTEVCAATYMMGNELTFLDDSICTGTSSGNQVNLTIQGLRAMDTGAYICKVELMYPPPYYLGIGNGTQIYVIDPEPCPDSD

T3: hCTLA4_ECD.His point mutant Q76 to alanine (human, UniProt P16410 36-161)
T3 construct: extracellular domain; alanine-scan mutein, HEK293F supernatant
T3 sequence (looked up): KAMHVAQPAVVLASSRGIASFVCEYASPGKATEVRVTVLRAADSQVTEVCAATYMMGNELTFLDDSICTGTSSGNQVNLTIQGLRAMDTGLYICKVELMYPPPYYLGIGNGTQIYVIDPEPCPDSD

T4: hCTLA4_ECD.His point mutant L141 to alanine (human, UniProt P16410 36-161)
T4 construct: extracellular domain; alanine-scan mutein, HEK293F supernatant
T4 sequence (looked up): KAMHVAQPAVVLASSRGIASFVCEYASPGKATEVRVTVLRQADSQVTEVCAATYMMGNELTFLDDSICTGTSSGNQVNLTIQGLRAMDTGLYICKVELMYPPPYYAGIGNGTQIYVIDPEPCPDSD

T5: hCTLA4_ECD.His point mutant G142 to alanine (human, UniProt P16410 36-161)
T5 construct: extracellular domain; alanine-scan mutein, HEK293F supernatant
T5 sequence (looked up): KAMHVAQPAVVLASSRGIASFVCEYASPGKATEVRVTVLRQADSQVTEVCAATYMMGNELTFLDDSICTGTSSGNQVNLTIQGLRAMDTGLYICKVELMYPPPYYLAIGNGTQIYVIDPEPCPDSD

T6: hCTLA4_ECD.His point mutant V131 to alanine (human, UniProt P16410 36-161)
T6 construct: extracellular domain; alanine-scan mutein, HEK293F supernatant
T6 sequence (looked up): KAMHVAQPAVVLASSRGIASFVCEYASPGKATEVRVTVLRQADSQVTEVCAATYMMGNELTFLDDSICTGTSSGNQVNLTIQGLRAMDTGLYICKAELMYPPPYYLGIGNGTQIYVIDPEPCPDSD

T7: hCTLA4_ECD.His point mutant Y127 to alanine (human, UniProt P16410 36-161)
T7 construct: extracellular domain; alanine-scan mutein, HEK293F supernatant
T7 sequence (looked up): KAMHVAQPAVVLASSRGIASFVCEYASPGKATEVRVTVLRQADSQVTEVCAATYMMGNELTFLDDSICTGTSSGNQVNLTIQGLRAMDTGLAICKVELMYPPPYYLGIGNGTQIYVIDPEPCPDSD

T8: hCTLA4_ECD.His point mutant T82 to alanine (human, UniProt P16410 36-161)
T8 construct: extracellular domain; alanine-scan mutein, HEK293F supernatant
T8 sequence (looked up): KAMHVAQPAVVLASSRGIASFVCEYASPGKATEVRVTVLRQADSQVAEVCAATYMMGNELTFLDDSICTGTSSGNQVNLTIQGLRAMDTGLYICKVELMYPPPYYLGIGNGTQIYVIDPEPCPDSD

T9: hCTLA4_ECD.His point mutant M90 to alanine (human, UniProt P16410 36-161)
T9 construct: extracellular domain; alanine-scan mutein, HEK293F supernatant
T9 sequence (looked up): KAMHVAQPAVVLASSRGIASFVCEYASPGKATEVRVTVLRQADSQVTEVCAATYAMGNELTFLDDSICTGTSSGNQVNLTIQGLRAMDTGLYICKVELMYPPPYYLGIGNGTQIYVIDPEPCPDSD

T10: hCTLA4_ECD.His point mutant T147 to alanine (human, UniProt P16410 36-161)
T10 construct: extracellular domain; alanine-scan mutein, HEK293F supernatant
T10 sequence (looked up): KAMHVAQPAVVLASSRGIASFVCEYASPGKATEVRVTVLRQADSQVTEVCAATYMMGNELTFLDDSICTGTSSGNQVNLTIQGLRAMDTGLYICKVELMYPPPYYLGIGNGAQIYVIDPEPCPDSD

T11: hCTLA4_ECD.His point mutant E132 to alanine (human, UniProt P16410 36-161)
T11 construct: extracellular domain; alanine-scan mutein, HEK293F supernatant
T11 sequence (looked up): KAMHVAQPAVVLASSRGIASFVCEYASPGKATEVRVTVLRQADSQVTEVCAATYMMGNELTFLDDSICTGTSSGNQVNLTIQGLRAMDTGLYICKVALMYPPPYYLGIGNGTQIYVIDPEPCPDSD

T12: hCTLA4_ECD.His point mutant K130 to alanine (human, UniProt P16410 36-161)
T12 construct: extracellular domain; alanine-scan mutein, HEK293F supernatant
T12 sequence (looked up): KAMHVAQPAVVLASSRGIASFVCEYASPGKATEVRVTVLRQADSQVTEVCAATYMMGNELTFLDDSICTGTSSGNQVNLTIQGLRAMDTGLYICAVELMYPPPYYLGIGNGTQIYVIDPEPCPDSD

T13: hCTLA4_ECD.His point mutant I128 to alanine (human, UniProt P16410 36-161)
T13 construct: extracellular domain; alanine-scan mutein, HEK293F supernatant
T13 sequence (looked up): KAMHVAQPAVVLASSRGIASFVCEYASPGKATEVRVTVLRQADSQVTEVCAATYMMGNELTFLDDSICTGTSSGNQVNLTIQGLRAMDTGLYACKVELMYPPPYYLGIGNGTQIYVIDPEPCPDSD


Assays:
Experiment in all cases: capture ELISA, alanine scan, vs silent alanine substitutions
[1] = molecular target: T1, hCTLA4_ECD.His point mutant G64 to …
In short: (§1)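 Secreted His-tagged CTLA4 point muteins in quantified supernatant were captured and probed with HRP anti-His antibody and TMB. Absorbance normalised to the mean of control mutants; epitope residues were assigned with a binding fold-change cutoff of <0.55.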

[2] = molecular target: T2, hCTLA4_ECD.His point mutant L126 to …
In short: as §1

[3] = molecular target: T3, hCTLA4_ECD.His point mutant Q76 to …
In short: as §1

[4] = molecular target: T4, hCTLA4_ECD.His point mutant L141 to …
In short: as §1

[5] = molecular target: T5, hCTLA4_ECD.His point mutant G142 to …
In short: as §1

[6] = molecular target: T6, hCTLA4_ECD.His point mutant V131 to …
In short: as §1

[7] = molecular target: T7, hCTLA4_ECD.His point mutant Y127 to …
In short: as §1

[8] = molecular target: T8, hCTLA4_ECD.His point mutant T82 to …
In short: as §1

[9] = molecular target: T9, hCTLA4_ECD.His point mutant M90 to …
In short: as §1

[10] = molecular target: T10, hCTLA4_ECD.His point mutant T147 to …
In short: as §1

[11] = molecular target: T11, hCTLA4_ECD.His point mutant E132 to …
In short: as §1

[12] = molecular target: T12, hCTLA4_ECD.His point mutant K130 to …
In short: as §1

[13] = molecular target: T13, hCTLA4_ECD.His point mutant I128 to …
In short: as §1

Fold change [1] [fold]	Fold change [2] [fold]	Fold change [3] [fold]	Fold change [4] [fold]	Fold change [5] [fold]	Fold change [6] [fold]	Fold change [7] [fold]	Fold change [8] [fold]	Fold change [9] [fold]	Fold change [10] [fold]	Fold change [11] [fold]	Fold change [12] [fold]	Fold change [13] [fold]	Binder
0.543													W3162_1.154.8-z35-uAb.IgG1K (antibody, V domains shown, Humanized; label says IgG1K) VH: QVQLVQSGAEVKKPGSSVKVSCKASGYTFTNYFMNWVRQAPGQGLEWMGRVDPEQGRADYAEKFKKRVTITADKSTSTAYMELSSLRSEDTAVYYCARRAMDNYGFAYWGQGTLVTVSS VL: EIVLTQSPDFQSVTPKEKVTITCSANSALSYMYWYQQKPDQSPKLWVHGTSNLASGVPSRFSGSGSGTDFTLTINSLEAEDAATYYCHHWSNTQWTFGGGTKVEIK
	0.398	0.2	0.486	0.543	0.504	0.529	0.436	0.492	0.486	0.457	0.348	0.256	W3162-1.146.19-z12-uAb.IgG1K (antibody, V domains shown, Humanized; label says IgG1K) VH: QVQLQESGPGLVKPSETLSLTCSVTYHTITSGYDWTWIRKPPGKGMEWIGYISYSGNTNYNPSLKSRVTISRDTSKNQFFLKLSSVTAADTAVYYCASMMVPHYYVMDAWGQGTLVTVSS VL: DIVMTQTPLSLSVTPGQPASISCRSSQSLLNSDGNTYLYWYLQKPGQSPQLLIYLVSKLGSGVPNRFSGSGSGTDFTLKISRVEAEDVGVYYCVQGTHDPWTFGGGTKVEIK

From US20200277377A1 (WUXI BIOLOGICS SHANGHAI, published 2020)
